Reference: patent US20150285801

System: GST-topo I
Sequence (chain, as listed by the source): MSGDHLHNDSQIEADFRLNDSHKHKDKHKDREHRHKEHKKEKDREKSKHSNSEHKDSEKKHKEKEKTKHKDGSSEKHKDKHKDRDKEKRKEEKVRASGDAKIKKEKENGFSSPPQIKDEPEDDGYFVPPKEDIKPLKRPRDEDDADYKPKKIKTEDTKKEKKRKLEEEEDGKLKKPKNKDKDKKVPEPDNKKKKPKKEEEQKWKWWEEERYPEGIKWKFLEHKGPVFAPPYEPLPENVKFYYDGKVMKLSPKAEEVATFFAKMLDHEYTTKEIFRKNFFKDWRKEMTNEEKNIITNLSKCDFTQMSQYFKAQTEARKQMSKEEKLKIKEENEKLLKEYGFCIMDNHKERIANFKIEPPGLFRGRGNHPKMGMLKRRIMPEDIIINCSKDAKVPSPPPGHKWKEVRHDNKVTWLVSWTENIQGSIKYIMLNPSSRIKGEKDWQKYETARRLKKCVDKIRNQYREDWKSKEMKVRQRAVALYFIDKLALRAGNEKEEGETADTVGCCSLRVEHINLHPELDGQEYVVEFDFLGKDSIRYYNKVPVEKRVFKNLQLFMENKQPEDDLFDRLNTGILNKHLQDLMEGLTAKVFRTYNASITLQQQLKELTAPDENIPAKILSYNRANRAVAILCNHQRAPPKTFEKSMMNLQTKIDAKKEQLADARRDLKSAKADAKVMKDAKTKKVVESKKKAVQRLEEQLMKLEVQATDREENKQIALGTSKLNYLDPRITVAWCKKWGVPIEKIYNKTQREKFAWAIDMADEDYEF

BRCA1/BARD1 (E3)
in vitro ubiquitination, immunoblot with anti-ubiquitin: topo I is ubiquitinated by BRCA1
